From patent US20140161821A1, “TREATMENT WITH ANTI-PCSK9 ANTIBODIES” (PFIZER INC., priority 2011, published 2014)
Where two headings read alike, the source gives them in different places.

How the values were obtained:
[1] = tested on: PCSK9; assay: LDL-C and HDL-C in cynomolgus monkeys after IV dosing; assay type: in vivo
From the text: One (1) mg/kg dosing reached a maximum effect of 71% reduction in LDL-C on day 5, and began to recover immediately thereafter, reaching pre-dose levels by day 14. Three (3) mg/kg dosing reached a maximum effect of 72% reduction in LDL-C by day 7, levels began to recover by day 13, and returned to baseline by day 22. Ten (10) mg/kg dosing maintained the 70% reduction in LDL-C levels until day 21 post-dosing, and animals fully recovered by day 31. […] HDL-C levels were not affected by L1L3 treatment in all dose groups.
These two additional doses again lowered LDL-C and kept LDL-C levels below 50% for 4 weeks. LDL-C levels returned to normal two weeks later.

[2] = Experimental: Subjects were seen periodically in the clinic for safety assessments and collection of blood for safety labs, lipid profiles, PK, PD, and immunogenicity samples. Telephone contacts were made prior to each visit to remind them of the 10-hour fasting requirements, during screening and on Day 3 to assess adverse events and document the contact in the subject's source document. […] Infusions were administered as a single infusion over approximately 60 minutes.
[3] = Example 3 clinical study: safety and adverse events; assay type: in vivo, human
Experimental: (§1) In the study, the incidence of subjects meeting toxicity or intolerable dose criteria was measured. Incidence of treatment emergent adverse events (TEAEs) categorized by severity and causal relationship to study drug was also be measured. The timeframe for measurement of each of the above outcomes was two months.

[4] = target: T1, PCSK9 (Homo sapiens, UniProt Q8NBP7); assay: Example 5 clinical study, four weekly IV doses: fasting LDL-C; assay type: in vivo, human Japanese subjects; settings: weekly IV 0.25, 0.5, 1.0, 1.5 mg/kg on Days 1, 8, 15, 22; baseline about 155 mg/dL
T1 construct: PCSK9 antagonist antibody that antagonizes circulating PCSK9; endogenous in cells; host or cells: human subjects in clinical trials (in vivo, circulating PCSK9)
From the text: This study was a randomized, multi-center, double-blind, placebo control, parallel designed trial with a 28 day screening period, 4 week treatment period and 8 week follow-up period (FIG. 11). […] For each subject, the study consisted of 3 periods: screening, treatment, and follow-up. […] The follow-up period will lasted approximately 8 weeks, from approximately Day 29 to the last visit (Day 78).

[5] = Example 3 clinical study, single IV dose on stable atorvastatin: L1L3 pharmacokinetics; settings: geometric mean
Experimental: Infusion rates were carefully controlled by an infusion device per protocol. Atorvastatin (40 mg daily) was administered as described below in the study protocol. Subjects self-administered atorvastatin during their participation in this study except from Days 1 through 7 during their confinement to the clinic where the same dose was administered by qualified site personnel.
The subjects returned to the clinical research unit for subsequent visits.
as §1
Dose Administration: subjects took sponsor-provided atorvastatin (40 mg). […] Subjects fasted at least 10 hours prior to the lipid panel blood sample on Days 5 and 6.

[6] = target: T2, PCSK9 (Mus musculus, UniProt Q80W65); assay: Serum cholesterol in C57BL/6 mice after single IP dose; assay type: in vivo; settings: 10 mg/kg single IP
T2 construct: endogenous in cells; host or cells: live C57BL/6 mice (in vivo, serum PCSK9)
Experimental: Serum cholesterol levels recovered to 69 mg/dL by day 7 post-treatment.

[7] = Example 2 clinical study: safety and adverse events; assay type: in vivo; settings: single IV 0.3-18 mg/kg
Experimental: The study entailed a randomized, placebo-controlled, ascending, single dose study of L1L3. The subjects, investigator, and site personnel (except site personnel responsible for drug preparation) were blinded to treatment assignments, as was the CRO designee; while the Sponsor clinical research team was unblinded. The study was conducted in 6 planned cohorts of 8 subjects per cohort in an effort to seek a maximum tolerated dose or MTD (total of approximately 48 subjects). […] Doses were administered following an overnight fast as an intravenous infusion over 60 minutes. […] Infusions will be administered as a single infusion over 60 minutes.
The dosing schedule was adjusted to allow administration of lower, intermediate, or higher doses to obtain a maximum tolerated dose and no effect dose. Each subject enrolled into the study, regardless of cohort assignment, received only one dose of study drug during their study participation.

[8] = target: T3, PCSK9 (Rattus norvegicus, UniProt P59996); assay: Dose-response of serum cholesterol and triglycerides in Sprague-Dawley rats, single IP dose; assay type: in vivo
T3 construct: endogenous in cells; host or cells: live Sprague-Dawley rats (in vivo, serum PCSK9)
From the text: The duration of the cholesterol repression was also dose dependent, ranging from 1 to 21 days.

[9] = single IV 0.5 or 4 mg/kg + atorvastatin 40 mg daily

T2 sequence (Q80W65 156-694): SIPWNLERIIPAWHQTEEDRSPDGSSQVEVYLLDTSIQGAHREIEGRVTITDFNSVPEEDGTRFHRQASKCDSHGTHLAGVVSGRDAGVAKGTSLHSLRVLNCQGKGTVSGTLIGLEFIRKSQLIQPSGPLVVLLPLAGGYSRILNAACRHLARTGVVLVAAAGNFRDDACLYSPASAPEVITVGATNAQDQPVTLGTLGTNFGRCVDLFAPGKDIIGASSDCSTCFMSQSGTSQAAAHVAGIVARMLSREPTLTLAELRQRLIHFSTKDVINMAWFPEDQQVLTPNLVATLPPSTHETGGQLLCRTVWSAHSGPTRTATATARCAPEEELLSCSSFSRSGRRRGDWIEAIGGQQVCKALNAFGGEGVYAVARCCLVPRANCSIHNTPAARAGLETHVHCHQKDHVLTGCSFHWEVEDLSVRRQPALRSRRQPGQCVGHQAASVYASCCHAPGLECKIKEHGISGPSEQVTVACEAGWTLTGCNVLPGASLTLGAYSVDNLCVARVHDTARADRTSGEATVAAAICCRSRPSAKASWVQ
T2 sequence (Q80W65 35-155 partner limits assumed): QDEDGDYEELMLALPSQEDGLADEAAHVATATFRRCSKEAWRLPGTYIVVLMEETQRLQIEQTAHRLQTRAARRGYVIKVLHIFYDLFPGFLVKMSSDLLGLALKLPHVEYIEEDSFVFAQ
T3 sequence (P59996 152-691): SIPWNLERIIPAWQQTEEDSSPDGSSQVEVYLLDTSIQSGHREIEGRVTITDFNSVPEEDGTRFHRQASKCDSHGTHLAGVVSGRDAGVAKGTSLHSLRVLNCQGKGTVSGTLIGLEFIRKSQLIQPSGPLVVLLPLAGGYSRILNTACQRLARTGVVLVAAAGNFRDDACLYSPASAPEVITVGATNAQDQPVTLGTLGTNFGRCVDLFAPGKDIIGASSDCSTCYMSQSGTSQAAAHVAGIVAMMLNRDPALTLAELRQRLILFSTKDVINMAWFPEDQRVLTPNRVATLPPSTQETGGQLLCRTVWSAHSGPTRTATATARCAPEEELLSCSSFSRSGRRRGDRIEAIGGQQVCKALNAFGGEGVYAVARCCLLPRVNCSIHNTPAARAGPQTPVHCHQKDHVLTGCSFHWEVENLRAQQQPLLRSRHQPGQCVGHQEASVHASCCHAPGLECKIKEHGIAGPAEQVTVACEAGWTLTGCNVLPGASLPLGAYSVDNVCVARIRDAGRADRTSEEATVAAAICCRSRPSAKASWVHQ
T1 sequence (Q8NBP7 153-692): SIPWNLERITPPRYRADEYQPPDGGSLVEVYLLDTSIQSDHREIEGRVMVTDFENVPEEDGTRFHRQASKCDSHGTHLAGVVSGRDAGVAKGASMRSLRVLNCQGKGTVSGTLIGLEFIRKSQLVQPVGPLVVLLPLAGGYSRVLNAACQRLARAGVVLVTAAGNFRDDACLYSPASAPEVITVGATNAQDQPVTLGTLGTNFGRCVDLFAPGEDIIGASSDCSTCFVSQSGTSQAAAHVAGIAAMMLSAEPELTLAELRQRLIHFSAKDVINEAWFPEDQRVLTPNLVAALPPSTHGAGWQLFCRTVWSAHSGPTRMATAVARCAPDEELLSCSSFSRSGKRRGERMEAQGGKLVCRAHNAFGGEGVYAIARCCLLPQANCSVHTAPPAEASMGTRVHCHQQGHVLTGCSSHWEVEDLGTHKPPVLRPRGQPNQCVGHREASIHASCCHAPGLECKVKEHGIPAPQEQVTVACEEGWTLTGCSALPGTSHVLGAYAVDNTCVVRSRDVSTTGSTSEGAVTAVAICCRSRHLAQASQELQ
T1 sequence (Q8NBP7 31-152 partner limits assumed): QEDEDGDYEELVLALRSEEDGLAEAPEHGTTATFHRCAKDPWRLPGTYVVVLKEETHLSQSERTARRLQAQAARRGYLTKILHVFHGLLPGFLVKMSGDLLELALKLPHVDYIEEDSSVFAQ

B1: L1L3: humanized (<5% murine residues) monoclonal PCSK9 antagonist antibody that binds to secreted PCSK9; VH SEQ ID NO: 11, VL SEQ ID NO: 12 (antibody, V domains shown)
VH: QVQLVQSGAEVKKPGASVKVSCKASGYTFTSYYMHWVRQAPGQGLEWMGEISPFGGRTNYNEKFKSRVTMTRDTSTSTVYMELSSLRSEDTAVYYCARERPLYASDLWGQGTTVTVSS
VL: DIQMTQSPSSLSASVGDRVTITCRASQGISSALAWYQQKPGKAPKLLIYSASYRYTGVPSRFSGSGSGTDFTFTISSLQPEDIATYYCQQRYSLWRTFGQGTKLEIK
modifications: heavy chain variable region; light chain variable region
Day by which LDL-C recovered ([1]; single IV 0.1 mg/kg): ≤ 5 days
LDL-C drop (transient) ([1]; single IV 0.1 mg/kg, day 2): 50%
Day by which LDL-C reached pre-dose levels ([1]; single IV 1 mg/kg): ≤ 14 days
LDL-C reduction, maximum effect ([1]; single IV 1 mg/kg, day 5): 71%
Day by which LDL-C returned to baseline ([1]; single IV 3 mg/kg): ≤ 22 days
LDL-C reduction, maximum effect ([1]; single IV 3 mg/kg, by day 7): 72%
Day by which animals fully recovered (LDL-C) ([1]; single IV 10 mg/kg): ≤ 31 days
LDL-C reduction ([1]; single IV 10 mg/kg, maintained until day 21 post-dosing): 70%
HDL-C levels ([1]; single IV 0.1, 1, 3, 10 mg/kg, all dose groups): not affected
Serum HDL-C levels ([1]; two additional IV doses of 3 mg/kg on study days 42 and 56): remained unchanged
LDL-C levels ([1]; two additional IV doses of 3 mg/kg on study days 42 and 56, for 4 weeks): below 50%
Cmax ([2]; 0.25 mg/kg, after 1st dose): 10900 ± 13000 ng/mL
Ctrough ([2]; 0.25 mg/kg, after 1st dose): 109 ± 406 ng/mL
Ctrough ([2]; 3 mg/kg, after 3rd dose): 3040 ± 4420 ng/mL
Ctrough ([2]; 6 mg/kg, after 3rd dose): 15600 ± 15300 ng/mL
Discontinued subjects [3, 9]: no discontinued subjects
Intensity of TEAEs [3, 9]: none were severe in intensity
Serious adverse events (SAE) [3, 9]: one serious adverse event (SAE), i.e. worsening of migraine headache, which was not drug-related
Alanine aminotransferase (ALT) and/or aspartate aminotransferase (AST) elevation (TEAEs) ([3]; transient, without clinical signs/symptoms, all resolved within one week): greater than 3 ×ULN
Fasting LDL-C [4]: sustained, substantial and durable dose-dependent fasting LDL-C lowering
AUCinf ([5]; 0.5 mg/kg L1L3 + atorvastatin): 46338 ng·days/mL
AUCt ([5]; 0.5 mg/kg L1L3 + atorvastatin): 38310 ng·days/mL
CL ([5]; 0.5 mg/kg L1L3 + atorvastatin): 10.8 mL/day/kg
Cmax ([5]; 0.5 mg/kg L1L3 + atorvastatin): 13827 ng/mL
Vss ([5]; 0.5 mg/kg L1L3 + atorvastatin): 0.0402 L/kg
AUCinf ([5]; 4 mg/kg L1L3 + atorvastatin): 777167 ng·days/mL
AUCt ([5]; 4 mg/kg L1L3 + atorvastatin): 726337 ng·days/mL
CL ([5]; 4 mg/kg L1L3 + atorvastatin): 5.2 mL/day/kg
Cmax ([5]; 4 mg/kg L1L3 + atorvastatin): 105048 ng/mL
Vss ([5]; 4 mg/kg L1L3 + atorvastatin): 0.0523 L/kg
Serum cholesterol reduction vs saline treated controls ([6]; 48 hours post treatment): 37%
Serum cholesterol levels ([6]; 4 days post-treatment): 44 mg/dL
Serum cholesterol reduction vs control animals ([6]; 4 days post-treatment): 47%
Serum cholesterol levels (recovered) ([6]; day 7 post-treatment): 69 mg/dL
Serum cholesterol levels ([6]; normal diet, 48 hours post treatment): 47 mg/dL
Discontinuation due to treatment emergent adverse events (TEAEs) [7]: no subjects discontinued
Intensity of TEAEs [7]: majority of TEAEs were mild in intensity; none were severe
Serious adverse events [7]: no serious adverse events occurred
Non-fasting serum triglyceride levels, maximum increase ([8]; single IP 80 mg/kg): approximately three
Serum cholesterol reduction, maximum effect ([8]; single IP 10 and 80 mg/kg, 48 hours post dosing): 50%
